In article PMC5766103 (PLoS ONE, 2018):
One block for each molecule: values may come before it.

How the values were obtained:
IL-17A = target: T1, IL-17A (Homo sapiens, UniProt Q16552); assay: Surface plasmon resonance (BIAcore T200) binding of peptides to captured Avi-tagged IL-17A; conditions: 8°C, 50 μl/min, 10 mM HEPES pH 7.5, 150 mM NaCl, 0.005% P20, 3% DMSO; global fit, 1:1 binding model; read-out: SPR KD1
T1 construct: His-tag; Flag-tag; made in house; host or cells: Sf9 insect cells (baculovirus)

[1] = clinical trials, moderate to severe psoriasis; ref [7]–[9]; cited from earlier work
Description: Augmented expression of IL-17A is linked with various autoimmune disorders. Therefore, blocking activity of IL-17A has been of great therapeutic interest. Two approved antibody based therapeutics targeting IL-17A, Secukinumab and Ixekizumab, are currently being used for treatment of moderate to severe psoriasis. […] Moreover, current advanced clinical trials have shown promising results for treatment of ankylosing spondylitis and psoriatic arthritis ...

[2] = target: the molecule itself; assay: crystal structure; IL-17A at 7.1 mg/ml with 2 mM peptide; crystals at 8°C in 20% PEG 3350, 200 mM lithium chloride; 1.6 Å
[3] = target: Avi-tagged IL-17A (IL-17A molecule with a single biotin tag per dimer) (human) (UniProt Q16552); assay: SPR; Avi-tagged IL-17A (6000–9000 RU) captured on a streptavidin chip; peptides flowed at 50 μl/min; 8°C; 10 mM HEPES pH 7.5, 150 mM NaCl, 0.005% P20, 3% DMSO; global fit, 1:1 binding model
[4] = target: Avi-tagged IL-17A (IL-17A molecule with a single biotin tag per dimer) (human) (UniProt Q16552); assay: AlphaScreen or HTRF; AlphaLISA competition: 2 nM IL-17RA-flag and 2 nM Avi-tagged IL-17A-His with peptide dilutions, 2 h at room temperature; streptavidin donor and anti-FLAG acceptor beads; 20 mM HEPES, 150 mM NaCl, 0.05% Tween-20, 0.1% HSA, pH 7, 1% DMSO; relative IC50, four parameter fit

Kd (IL-17A): 1300 nM
Molecule: CSCC[C@@H]1NC(=O)[C@H](CC(=O)O)NC(=O)[C@H](Cc2ccc(O)cc2)NC(=O)[C@H](CCC(=O)O)NC(=O)[C@H](CC(C)C)NC(=O)[C@H](C(C)C)NC(=O)[C@H](Cc2c[nH]c3ccccc23)NC(=O)[C@@H](N)CSSC[C@@H](C(=O)N[C@@H](CCCNC(=N)N)C(=O)O)NC(=O)[C@H](Cc2c[nH]cn2)NC(=O)[C@H](CC(C)C)NC(=O)[C@H](C)NC(=O)CNC(=O)[C@H](Cc2ccccc2)NC1=O [18–902]

Molecule: Ixekizumab: approved antibody based therapeutic targeting IL-17A
patient population with at least 75% reduction of disease severity (PASI75) [1]: 80%

Molecule: Secukinumab: approved antibody based therapeutic targeting IL-17A
patient population with at least 75% reduction of disease severity (PASI75) [1]: 80%

B1: IL-17A residues 38–155 with the mutations N68D/C129S (ligand, human, UniProt Q16552 38-155, looked up)
chain: DKNFPRTVMVNLNIHNRNTNTNPKRSSDYYDRSTSPWNLHRNEDPERYPSVIWEAKCRHLGCINADGNVDYHMNSVPIQQEILVLRREPPHSPNSFRLEKILVSVGCTCVTPIVHHVA
notes: construct numbers and the two mutations count on the precursor protein; Crystallography construct
binding result [2]: binds

Kd [3]: 3870 nM | koff [3]: 0.0528 s⁻¹ | kon [3]: 13700 M⁻¹ s⁻¹ | IC50 [4]: 1900 nM
Molecule: CLDLQYDMFGALHCV [18–913]
